Measurements reported in patent US20190330298A1 (WORG PHARMACEUTICALS ZHEJIANG, published 2019).

Molecular target: T1, HLA-DRB1*0301 molecule (HLA-DR3 MHC class II of DR3tg mice) (human)
T1 construct: whole, on cells; MHC class II expressed by DR3tg mice (no mouse MHC II); the responding T cells came from DR3 mice; also called MHC II
Assay: in vivo presentation test in DR3tg mice; binding inferred from IFN-γ response of peptide-specific T cells to isolated CD11c+ cells
Method: DR3tg or DR2tg mice were injected with 100 μg of peptide in 100 μl PBS subcutaneously (s.c.) in the flank. Control animals received a s.c. injection of 100 μl PBS. After 2 hours, spleens were harvested and single-cell suspensions were made. CD11c⁺ cells were positively selected using CD11c microbeads according to the manufacturer's instructions (Miltenyi Biotec, Bergisch Gladbach, Germany). Average purities of >92% were reached. 5×10⁴ CD11c⁺ cells were co-cultured with 5×10⁴ CD4⁺ cells in round bottom 96-well plates in X-vivo 15 medium (supplemented with 2 mM L-glutamine, 50 U/mL penicillin and 50 U/mL streptomycin; Lonza). […] After 48 hours, supernatant of these co-cultures was collected and CD4⁺ T cell activation was analysed by IFN-γ ELISA (R&D Systems, Abingdon, UK). In a parallel experiment, CD4⁺ T cell responses towards peptide added in vitro were assessed to make sure the T cells recognize the peptides presented by the CD11c⁺ cells.
In FIG. 15 the ability of HIP-115NE3 (insoluble peptide) and that of its soluble version, HIP-115NE3-KKK, to be picked up and presented by MHC II molecules present on dendritic cells (DC) upon sc. injection in an in vivo setting (DR3tg mice) was compared. […] T cell activity response was measured by production of IFN-γ. […]

B1: HIP-115NE3-KKK (peptide)
peptide: H-KKKVIFKKISRDKSVTIYLGKKK-NH2
notes: Synthetic; HIP-115NE3 with KKK at both ends
- binding result: binds
